Laboratory results reported in patent publication US7208293.

Tests used:
[1] = target: trypsin (UniProt P00760); assay: elution from trypsin beads
[2] = target: human neutrophil elastase (human) (UniProt P08246); assay: acid elution from HNE beads
[3] = target: trypsin (UniProt P00760); assay: acid elution from trypsin beads
[4] = target: anhydro-trypsin (UniProt P00760); assay: elution from anhydrotrypsin beads
[5] = target: anhydro-trypsin (UniProt P00760); assay: loss of titer on anhydrotrypsin beads
[6] = target: anhydro-trypsin (UniProt P00760); assay: acid elution from anhydrotrypsin beads, experiment 1
[7] = target: anhydro-trypsin (UniProt P00760); assay: acid elution from anhydrotrypsin beads, experiment 2
[8] = target: human neutrophil elastase (human) (UniProt P08246); assay: HNE beads, pH 2.0 elution
[9] = target: human neutrophil elastase (human) (UniProt P08246); assay: HNE beads, pH 2.5 elution
[10] = target: human neutrophil elastase (human) (UniProt P08246); assay: HNE beads, pH 3.0 elution
[11] = target: human neutrophil elastase (human) (UniProt P08246); assay: HNE beads, pH 3.5 elution
[12] = target: human neutrophil elastase (human) (UniProt P08246); assay: HNE beads, pH 4.0 elution
[13] = target: human neutrophil elastase (human) (UniProt P08246); assay: HNE beads, pH 4.5 elution
[14] = target: human neutrophil elastase (human) (UniProt P08246); assay: HNE beads, pH 5.0 elution
[15] = target: human neutrophil elastase (human) (UniProt P08246); assay: HNE beads, pH 5.5 elution
[16] = target: human neutrophil elastase (human) (UniProt P08246); assay: HNE beads, pH 6.0 elution
[17] = target: human neutrophil elastase (human) (UniProt P08246); assay: HNE beads, pH 7.0 elution
[18] = target: human Cathepsin G (human) (UniProt P08311); assay: Cat-G beads, pH 2.0 elution
human Cathepsin G (human), sequence (P08311 21-244 limits assumed): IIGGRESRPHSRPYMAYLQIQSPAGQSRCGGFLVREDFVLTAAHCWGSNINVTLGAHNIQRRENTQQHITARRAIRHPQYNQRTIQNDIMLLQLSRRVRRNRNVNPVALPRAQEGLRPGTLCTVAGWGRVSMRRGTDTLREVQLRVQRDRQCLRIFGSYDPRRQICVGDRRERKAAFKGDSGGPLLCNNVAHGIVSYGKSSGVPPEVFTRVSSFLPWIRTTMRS

[19] = target: human Cathepsin G (human) (UniProt P08311); assay: Cat-G beads, pH 2.5 elution
[20] = target: human Cathepsin G (human) (UniProt P08311); assay: Cat-G beads, pH 3.0 elution
[21] = target: human Cathepsin G (human) (UniProt P08311); assay: Cat-G beads, pH 3.5 elution
[22] = target: human Cathepsin G (human) (UniProt P08311); assay: Cat-G beads, pH 4.0 elution
[23] = target: human Cathepsin G (human) (UniProt P08311); assay: Cat-G beads, pH 4.5 elution
[24] = target: human Cathepsin G (human) (UniProt P08311); assay: Cat-G beads, pH 5.0 elution
[25] = target: human Cathepsin G (human) (UniProt P08311); assay: Cat-G beads, pH 5.5 elution
[26] = target: human Cathepsin G (human) (UniProt P08311); assay: Cat-G beads, pH 6.0 elution
[27] = target: human Cathepsin G (human) (UniProt P08311); assay: Cat-G beads, pH 7.0 elution
[28] = target: human neutrophil elastase (human) (UniProt P08246); assay: HNE beads, final TBS-TWEEN wash
[29] = target: human Cathepsin G (human) (UniProt P08311); assay: Cat-G beads, final TBS-TWEEN wash
[30] = target: human neutrophil elastase (human) (UniProt P08246); assay: HNE beads, SUM of all pH elution fractions
[31] = target: human neutrophil elastase (human) (UniProt P08246); assay: HNE beads, abbreviated fractionation, WASH
[32] = target: human Cathepsin G (human) (UniProt P08311); assay: Cat-G beads, SUM of all pH elution fractions
[33] = target: human neutrophil elastase (human) (UniProt P08246); assay: HNE beads, abbreviated fractionation, pH 2.0
[34] = target: human neutrophil elastase (human) (UniProt P08246); assay: HNE beads, abbreviated fractionation, pH 3.5
[35] = target: human neutrophil elastase (human) (UniProt P08246); assay: HNE beads, abbreviated fractionation, pH 7.0
[36] = target: human neutrophil elastase (human) (UniProt P08246); assay: HNE beads, abbreviated fractionation, SUM of pH fractions
[37] = target: trypsin (UniProt P00760); assay: immobilized trypsin, CBS buffer pH 6.5, pH 2.2 elution
[38] = target: trypsin (UniProt P00760); assay: immobilized trypsin, TBS buffer pH 7.5, pH 2.2 elution
[39] = target: M13 MB48 phage (BPTI:VIII fusion display phage) (bovine BPTI fused to phage M13 gene VIII protein); assay: strain M13MB48 batch 4; NRS IgG added
[40] = target: M13 MB48 phage (BPTI:VIII fusion display phage) (bovine BPTI fused to phage M13 gene VIII protein); assay: strain M13MB48 batch 5; NRS IgG added
[41] = target: M13 mp18 phage; assay: strain M13MP18; NRS IgG and protein A-agarose
[42] = target: M13 mp18 phage; assay: strain M13MP18; IgG from normal rabbit serum added
[43] = target: M13 MB48 phage (BPTI:VIII fusion display phage) (bovine BPTI fused to phage M13 gene VIII protein); assay: strain M13MB48 batch 4; NRS IgG and protein A-agarose
[44] = target: M13 MB48 phage (BPTI:VIII fusion display phage) (bovine BPTI fused to phage M13 gene VIII protein); assay: strain M13MB48 batch 5; NRS IgG and protein A-agarose
[45] = target: M13 MB48 phage (BPTI:VIII fusion display phage) (bovine BPTI fused to phage M13 gene VIII protein); assay: strain M13MB48 batch 5; protein A-agarose alone

anhydro-trypsin, sequence (P00760 24-246): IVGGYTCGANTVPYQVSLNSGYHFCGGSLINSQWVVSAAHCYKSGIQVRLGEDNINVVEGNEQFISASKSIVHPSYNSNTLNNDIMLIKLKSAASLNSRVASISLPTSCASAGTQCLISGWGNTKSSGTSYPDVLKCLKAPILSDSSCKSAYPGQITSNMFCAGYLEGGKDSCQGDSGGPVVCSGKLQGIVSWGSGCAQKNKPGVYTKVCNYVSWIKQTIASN
trypsin, sequence (P00760 24-246): as above
human neutrophil elastase (human), sequence (P08246 30-247 limits assumed): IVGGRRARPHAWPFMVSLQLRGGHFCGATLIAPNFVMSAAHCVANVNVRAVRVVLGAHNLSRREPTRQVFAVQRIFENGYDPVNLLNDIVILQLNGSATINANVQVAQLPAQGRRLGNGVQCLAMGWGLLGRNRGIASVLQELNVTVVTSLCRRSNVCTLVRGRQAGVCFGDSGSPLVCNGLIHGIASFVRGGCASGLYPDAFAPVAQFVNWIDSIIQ

## M13 mp18 phage
[1]
  eluted phage, percentage of input: 0.00023%
  relative binding (to M13MP18): 1
[2]
  eluted phage, percentage of input: 0.0003%
  relative binding (to M13MP18): 1
[3]
  eluted phage, percentage of input: 0.0005%
  relative binding (to M13MP18): 1
[4]
  eluted phage, percentage of input: 0.1%
  relative binding (to M13MP18): 1
[5]
  pfu post incubation, percentage of input: 121%
[6]
  eluted phage, percentage of input: 0.2%
  relative to M13MP18: 1
[7]
  eluted phage, percentage of input: 0.3%
  relative to M13mp18: 1

## MA-ITI phage (ITI-D1-III fusion display phage) (from UniProt P02760 22-77)
[8]
  fraction of input: 5e-08
  total pfu in sample: 17000 pfu
[9]
  fraction of input: 4.1e-08
  total pfu in sample: 14000 pfu
[10]
  fraction of input: 8.5e-08
  total pfu in sample: 29000 pfu
[11]
  fraction of input: 1.4e-07
  total pfu in sample: 49000 pfu
[12]
  fraction of input: 2.1e-07
  total pfu in sample: 72000 pfu
[13]
  fraction of input: 3.5e-07
  total pfu in sample: 120000 pfu
[14]
  fraction of input: 9.1e-07
  total pfu in sample: 310000 pfu
[15]
  fraction of input: 4.7e-06
  total pfu in sample: 1.6e+06 pfu
[16]
  fraction of input: 2.9e-06
  total pfu in sample: 1e+06 pfu
[17]
  fraction of input: 4.7e-06
  total pfu in sample: 1.6e+06 pfu
[18]
  fraction of input: 7e-07
  total pfu in sample: 320000 pfu
[19]
  fraction of input: 5.9e-07
  total pfu in sample: 270000 pfu
[20]
  fraction of input: 7.8e-07
  total pfu in sample: 360000 pfu
[21]
  fraction of input: 9.6e-07
  total pfu in sample: 440000 pfu
[22]
  fraction of input: 9.6e-07
  total pfu in sample: 440000 pfu
[23]
  fraction of input: 1.5e-06
  total pfu in sample: 670000 pfu
[24]
  fraction of input: 2.4e-06
  total pfu in sample: 1.1e+06 pfu
[25]
  fraction of input: 2.6e-06
  total pfu in sample: 1.2e+06 pfu
[26]
  fraction of input: 5e-06
  total pfu in sample: 2.3e+06 pfu
[27]
  fraction of input: 1.3e-05
  total pfu in sample: 6.1e+06 pfu
[28]
  fraction of input: 5.3e-06
  total pfu in sample: 1.8e+06 pfu
[29]
  fraction of input: 1.5e-05
  total pfu in sample: 7.1e+06 pfu
[30]
  fraction of input: 2e-05
  total pfu in sample: 5.7e+06 pfu
[31]
  fraction of input: 1e-05
[32]
  fraction of input: 3e-05
  total pfu in sample: 1.4e+07 pfu
[33]
  fraction of input: 1e-06
[34]
  fraction of input: 3e-06
[35]
  fraction of input: 1e-05
[36]
  fraction of input: 1.4e-05

## MK phage
[37]
  percent of input phage recovered: 0.00028%
[38]
  percent of input phage recovered: 0.00034%

## normal rabbit serum / IgG purified from normal rabbit serum (antibody)
[39]
  percentage of input phage (pfu) remaining: 125%
[40]
  percentage of input phage (pfu) remaining: 105%
[41]
  percentage of input phage (pfu) remaining: 88%
[42]
  percentage of input phage (pfu) remaining: 104%
[43]
  percentage of input phage (pfu) remaining: 121%
[44]
  percentage of input phage (pfu) remaining: 110%

## protein A (agarose beads)
[45]
  percentage of input phage (pfu) remaining: 58%
